Experimental data from patent publication US20230227537A1 (VIB VZW, published 2023).
Several values for one entry are separate records, joined by “and”; a condition that tells them apart may be missing. Equal values may be shown once. Read-outs that look alike come from different tables or passages of the source.

What was measured:
[1] = molecular target: T1, Mouse IgG1 Fc fused SARS-CoV-2 RBD (Sino Biological) (SARS-CoV-2; mouse, UniProt P0DTC2 330-518); assay: ELISA on coated SARS-CoV-2 RBD-muFc, anti-VHH-HRP, OD450 [upper graph]
BSA [2] = molecular target: T2, BSA (Bos taurus, UniProt P02769); assay: ELISA on coated BSA, anti-VHH-HRP, OD450 [upper graph]
T2 construct: coated on the ELISA plate; also called negative control antigen

[3] = molecular target: SARS-CoV-2 RBD protein Avi-tag biotinylated (AcroBiosystems SPD-C82E9) (SARS-CoV-2, UniProt P0DTC2 330-518); assay: competition AlphaLISA; competitor human ACE2-mFc
[4] = molecular target: T1, Mouse IgG1 Fc fused SARS-CoV-2 RBD …; assay: ELISA on coated SARS-CoV-2 RBD-muFc, anti-VHH-HRP, OD450 [lower graph]
BSA [5] = molecular target: T2, BSA; assay: ELISA on coated BSA, anti-VHH-HRP, OD450 [lower graph]
[6] = molecular target: T3, WT SARS-CoV-2 RBD displayed on Saccharomyces cerevisiae (SARS-CoV-2, UniProt P0DTC2 331-518); assay: flow cytometry, yeast cells displaying WT RBD
[7] = molecular target: T3, WT SARS-CoV-2 RBD displayed on …
[8] = molecular target: T1, Mouse IgG1 Fc fused SARS-CoV-2 RBD …
[9] = molecular target: SARS-CoV-2 spike, full length, on cells or on pseudotyped/authentic virus (SARS-CoV-2, UniProt P0DTC2 14-1273); assay: cell-based or functional assay
[10] = molecular target: T1, Mouse IgG1 Fc fused SARS-CoV-2 RBD …; assay: BLI, RBD-mFc on AMC tips, global 1:1 fit
[11] = molecular target: T1, Mouse IgG1 Fc fused SARS-CoV-2 RBD …; remark: listed apart in the source

T2 sequence (P02769 25-607 limits assumed): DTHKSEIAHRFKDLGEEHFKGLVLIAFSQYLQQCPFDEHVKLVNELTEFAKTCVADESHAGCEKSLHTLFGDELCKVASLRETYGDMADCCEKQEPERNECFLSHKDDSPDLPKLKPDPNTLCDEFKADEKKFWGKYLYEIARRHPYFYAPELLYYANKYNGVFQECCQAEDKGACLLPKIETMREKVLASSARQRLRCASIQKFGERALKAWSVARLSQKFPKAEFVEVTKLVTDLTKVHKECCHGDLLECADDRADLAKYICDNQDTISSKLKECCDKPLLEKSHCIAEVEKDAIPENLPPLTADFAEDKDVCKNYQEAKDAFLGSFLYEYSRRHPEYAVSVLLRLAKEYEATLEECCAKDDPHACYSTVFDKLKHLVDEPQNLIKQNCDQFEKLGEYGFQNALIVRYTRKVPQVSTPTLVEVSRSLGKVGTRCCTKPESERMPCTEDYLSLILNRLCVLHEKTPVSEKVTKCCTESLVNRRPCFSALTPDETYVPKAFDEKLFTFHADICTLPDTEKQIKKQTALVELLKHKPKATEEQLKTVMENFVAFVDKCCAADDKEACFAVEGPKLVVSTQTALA

B1: VHH3.36 (VHH)
VHH: QVQLQESGGGLVQAGDSLRLSCVVSGGTFSSYAMGWFRQAPGKERELVAAINWGGISVYYADSVKGRFTISRDNAENTVYLQMNSLKPEDTAVYYCAADPKGWSEWDMEYWGKGTQVTVSS
[1]
  EC50 (read off the curve): ~0.05 µg/mL
BSA [2]
  binding result: no binding (tested: about 20 µg/ml)
[3]
  % inhibition: 100%
  IC50: 0.562 nM

B2: VHH3.77 (VHH)
VHH: QVQLQESGGGLVQAGGSLRLSCVSSGRAFGNGAVGWFRQGPGRPREFVATVSWNGGGTYFAESVRGRFTISRDNAKNTVYLQMNNLKPEDTAVYYCALAGEGTVVSEWDYDYEYWGQGTQVTVSS
[4]
  EC50 (read off the curve): ~0.03 µg/mL
BSA [5]
  binding result: no binding (tested: about 20 µg/ml)
[3]
  % inhibition: 97%
  IC50: 0.723 nM

B3: VHH3BE4 (VHH)
VHH: QVQLQESGGGLVQAGGSLRLSCVASGRAFGNGAVGWFRQAPGREREFVATVSWNGGGTYYAESVRGRFTISRDNAKSTVYLQMNSLKPEDTAVYYCASAGEGTVVSEWDYDYDYWGQGTQVTVSS
[3]
  % inhibition: 100%
  IC50: 0.634 nM

B4: VHH3.17 (VHH)
VHH: QVQLQESGGGLVEAGGSLTLSCAASGRAFGDGAVGWFRQGPGRPREFVATVSWNGGGTYFAESVRGRFTISRDNAKNTVYLQMNNLKPEDTAVYYCALAGEGTVVSEWDYDYEYWGQGTQVTVSS
[1]
  EC50 (read off the curve): ~0.05 µg/mL
BSA [2]
  binding result: no binding (tested: about 20 µg/ml)
[3]
  % inhibition: 99%
  IC50: 1.03 nM

B5: VHH3.144 (VHH)
VHH: QVQLQESGGGLVQAGGSLRLSCVASGRAFGNGAVGWFRQAPGREREFVATVSWNGGGTYYAESVRGRFTISRDNAKSTVYLQMNSLKPEDTAVYYCASAGEGTVVSEWDYDYDYWGQGTQVTVSS
BSA [5]
  binding result: no binding (tested: about 20 µg/ml)
[3]
  % inhibition: 100%
  IC50: 1.12 nM

B6: VHH3.47 (VHH)
VHH: QVQLQESGGGLVQAGDSLRLSCAASGHNFSTYAMAWFRQAPGTERELVAAISENDVMRYYADSVKGRFTISRDNAKNMAYLQMNSLKVEDTAVYLCAADPKGWSEWDMDYWGKGTQVTVSS
[4]
  EC50 (read off the curve): ~0.03 µg/mL
[3]
  % inhibition: 100%
  IC50: 0.729 nM

B7: VHH3.35 (VHH)
VHH: QVQLQESGGGLVQAGGSLTLSCEVSGRTNDNYGVGWFRQVPGAERELVAAIRWSSISRYYKDSVKGRFTISRDNAKNTVYLQMDMLKAEDTAVYYCAADPAGWSEFGMEYWGKGTQVTVSS
[1]
  EC50 (read off the curve): ~0.04 µg/mL
BSA [2]
  binding result: no binding (tested: about 20 µg/ml)
[3]
  % inhibition: 100%
  IC50: 1.06 nM

B8: VHH3.55 (VHH)
VHH: QVQLQESGGGLVQAGGSLRLSCEVSGRTNDNYGVGWFRQVPGAERELVAAIRWSSISRYYKDSVKGRFTISRDNAKNTVYLQMDMLKPEDTAAYYCAADPAGWSEFGMEYWGKGTQVTVSS
[4]
  EC50 (read off the curve): ~0.01 µg/mL
[6]
  concentration at which binding was just below saturation: 10 ng/mL
[7]
  EC50 (read off the curve): ~0.002 µg/mL
BSA [5]
  binding result: no binding (tested: about 20 µg/ml)
[3]
  % inhibition: 100%
  IC50: 0.817 nM

B9: VHH3.29 (VHH)
VHH: QVQLQESGGGLVQAGGSLRLSCVASGRTFSSGGMGWFRQAPGQEREFVAGIGWAGLSSYYLDSVKGRFTISLDNAKNTVYLQMNMLKPEDTGVYYCAADDHGWSAAGMDYLGQGTQVTVSS
[1]
  EC50 (read off the curve): ~0.03 µg/mL
BSA [2]
  binding result: no binding (tested: about 20 µg/ml)
[3]
  % inhibition: 97%
  IC50: 1 nM

B10: VHH3.38 (VHH)
VHH: QVQLQESGGGLVQAGGSLRLSCAASGGTFNNYAMAWFRQAPGQERELVAAMFWSGLPKYYADSVKGRFTISTDDAKNTVYLQMNGLKPEDTAVYYCAADSRGWSDVGGMDYWGKGTQVTVSS
[1]
  EC50 (read off the curve): ~0.04 µg/mL
BSA [2]
  binding result: no binding (tested: about 20 µg/ml)
[6]
  concentration at which binding was just below saturation: 10 ng/mL
[7]
  EC50 (read off the curve): ~0.001 µg/mL
[3]
  % inhibition: 99%
  IC50: 2.01 nM

B11: VHH3.83 (VHH)
VHH: QVQLQESGGGLVQPGDSLRLSCVLSGGVFTSYAMGWFRQAPGKEREFLAAITFNSDATYYADSVKGRFTISRDNAKNTAYLQMNSLKPNDTAVYSCAAGGNHYNPQYYHDYDKYDHWGQGTQVTVSS
[6]
  concentration at which binding was just below saturation: 10 ng/mL
[7]
  EC50 (read off the curve): ~0.003 µg/mL
[3]
  % inhibition: 74%
  IC50: 0.46 nM

B12: D72-16: h1-VHH72-GS-hIgG1hinge-hIgG1Fc (Fc fusion)
chain: EVQLVESGGGLVQPGGSLRLSCAASGRTFSEYAMGWFRQAPGKEREFVATISWSGGSTYYTDSVKGRFTISRDNAKNTVYLQMNSLRPEDTAVYYCAAAGLGTVVSEWDYDYDYWGQGTLVTVSSGS
notes: ExpiCHO
[8]
  EC50: 0.00965 µg/mL
[9]
  IC50, plaque reduction neutralization, authentic SARS-CoV-2: 0.94 µg/mL
[10]
  Kd: 0.102 nM
  koff: 0.000191 s⁻¹
  kon: 1.89e+06 M⁻¹ s⁻¹

B13: D72-02: VHH72-GS-hIgG1hinge-hIgG1Fc (Fc fusion)
chain: QVQLQESGGGLVQAGGSLRLSCAASGRTFSEYAMGWFRQAPGKEREFVATISWSGGSTYYTDSVKGRFTISRDNAKNTVYLQMNSLKPDDTAVYYCAAAGLGTVVSEWDYDYDYWGQGTQVTVSSGS
[8]
  EC50: 0.00695 µg/mL
[9]
  IC50, plaque reduction neutralization, authentic SARS-CoV-2: 1.01 µg/mL
[10]
  Kd: 0.142 nM
  koff: 0.00026 s⁻¹
  kon: 1.83e+06 M⁻¹ s⁻¹

B14: VHH72 - hIgG1.Hinge-hIgG1.Fc (Fc fusion)
VHH-Fc chain: QVQLQESGGGLVQAGGSLRLSCAASGRTFSEYAMGWFRQAPGKEREFVATISWSGGSTYYTDSVKGRFTISRDNAKNTVYLQMNSLKPDDTAVYYCAAAGLGTVVSEWDYDYDYWGQGTQVTVSS
[11]
  Kd: 0.0874 nM and 0.0895 nM
  koff: 0.000252 s⁻¹ and 0.000288 s⁻¹
  kon: 2.88e+06 M⁻¹ s⁻¹ and 3.22e+06 M⁻¹ s⁻¹

B15: parental VHH72-hIgG1 Fc (P. pastoris supernatant) (Fc fusion)
chain: QVQLQESGGGLVQAGGSLRLSCAASGRTFSEYAMGWFRQAPGKEREFVATISWSGGSTYYTDSVKGRFTISRDNAKNTVYLQMNSLKPDDTAVYYCAAAGLGTVVSEWDYDYDYWGQGTQVTVSS
[11]
  Kd: 0.0786 nM and 0.0765 nM
  koff: 0.000261 s⁻¹ and 0.000283 s⁻¹
  kon: 3.33e+06 M⁻¹ s⁻¹ and 3.7e+06 M⁻¹ s⁻¹

B16: VHH72_h1(S56A) (VHH)
VHH: EVQLVESGGGLVQPGGSLRLSCAASGRTFSEYAMGWFRQAPGKEREFVATISWSGGATYYTDSVKGRFTISRDNAKNTVYLQMNSLRPEDTAVYYCAAAGLGTVVSEWDYDYDYWGQGTLVTVSS
BSA [2]
  binding result: no binding (tested: about 20 µg/ml)

B17: VHH2.50 (VHH)
VHH: QVQLQESGGGLVQAGGSLRLSCAASGRTFSSIAMGWFRQAPGKEREFVATISWSGGSTYYADSVKGRFTISRDNAKNTVYLQMNSLKPEDTAVYYCAAAGLGTVVSEWDYDYDYWGQGTQVTVSS
[3]
  % inhibition: 79%
  IC50: 34.2 nM

B18: VHH3.149 (VHH)
VHH: QVQLQESGGGLVQAGGSLKLSCAASGRTFSSYALGWFRQAPGTEREFVSAINWFGAPTYYADSVKGRFTISRDNAKNTVYLQMDNLKPEDTAVYYCAADSKGWDPQDMDYWGKGTQVTVSS
[4]
  EC50 (read off the curve): ~0.006 µg/mL
BSA [5]
  binding result: no binding (tested: about 20 µg/ml)
[3]
  % inhibition: 98%
  IC50: 0.902 nM

B19: D72-13: VHH72-h1_(G4S)3-VHH72-h1_GS_hIgG1hinge-hIgG1Fc (Fc fusion)
chain: EVQLVESGGGLVQPGGSLRLSCAASGRTFSEYAMGWFRQAPGKEREFVATISWSGGSTYYTDSVKGRFTISRDNAKNTVYLQMNSLRPEDTAVYYCAAAGLGTVVSEWDYDYDYWGQGTLVTVSSGGGGSGGGGSGGGGSEVQLVESGGGLVQPGGSLRLSCAASGRTFSEYAMGWFRQAPGKEREFVATISWSGGSTYYTDSVKGRFTISRDNAKNTVYLQMNSLRPEDTAVYYCAAAGLGTVVSEWDYDYDYWGQGTLVTVSSGS
notes: ExpiCHO; tetravalent
[9]
  PRNT50, authentic SARS-CoV-2: 0.1 µg/mL
[10]
  Kd: < 0.001 nM
  koff: < 1e-07 s⁻¹
  kon: 2.65e+06 M⁻¹ s⁻¹

B20: VHH3.115 (VHH)
VHH: QVQLQESGGGLVQTGGSLRLSCAASGLTFSDIAMGWFRQAPGREREFVATISWSGGGTYYAEPVRGRFAISRDNAKNTVYLQMNSLKPEDTAVYYCAAAGAGTVVSEWDYDYDYWGQGTQVTVSS
[4]
  EC50 (read off the curve): ~0.006 µg/mL
BSA [5]
  binding result: no binding (tested: about 20 µg/ml)
[3]
  % inhibition: 100%
  IC50: 1.08 nM
